Measured values taken from patent US20070148201A1 (Pieris, published 2007).
Blank lines part the entries; values can stand above or below the binder they belong to.

Tests used:
[1] = molecular target: T1, type I horse ferritin (horse, UniProt P02791 2-175; Q8MIP0 2-182, limits assumed); test: high-throughput ELISA screening, crude cell extract, ferritin or aldolase coated on plate, anti-T7-HRP detection; Fer-D24 is one of the clones taken on from these 14
T1 construct: the natural protein is a shell of light and heavy chains
T1 sequence (P02791 2-175 limits assumed, chain 1 of 2): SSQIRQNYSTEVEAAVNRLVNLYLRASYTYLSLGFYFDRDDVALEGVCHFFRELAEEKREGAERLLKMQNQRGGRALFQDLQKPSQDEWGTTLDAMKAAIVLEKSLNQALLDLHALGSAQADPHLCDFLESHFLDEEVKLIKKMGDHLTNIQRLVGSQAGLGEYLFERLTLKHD
T1 sequence (Q8MIP0 2-182 limits assumed, chain 2 of 2): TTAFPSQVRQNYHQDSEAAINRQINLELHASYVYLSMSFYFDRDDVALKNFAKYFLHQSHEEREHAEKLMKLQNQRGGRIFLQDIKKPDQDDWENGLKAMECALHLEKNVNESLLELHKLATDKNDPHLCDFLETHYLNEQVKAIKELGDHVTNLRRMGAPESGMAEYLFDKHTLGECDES
Experimental: (§1) For the detection of binding, these cell extracts were tested for their reactivity on the prescribed target type I horse ferri tin as well as the unrelated control protein aldolase in ELISA experiments. Therefore, wells of black Fluotrac 600 ELISA plates (Greiner; 384 well) were coated overnight with 20 μl of a solution of ferritin (Sigma) or aldolase (Roche) at 4° C., each at a concentration of 20 μg/ml in PBS. Plates were washed five times with 100 μl PBST/0.05 per well with an automated ELISA plate washer (Molecular Devices) leaving a residual volume of 10 μl of the washing buffer in each well after the last washing step. Residual binding sites were blocked by incubation with 100 μl PBST/0.05 containing 2% w/v BSA for 2 h at room temperature. Afterwards, plates were again washed five times as described above.
(§2) For complex formation between the BBP muteins and the immobilized proteins, the wells were incubated with 10 μl of the blocked cell extract from above for 1 hour at room temperature. […] After 60 minutes at room temperature fluorescence was excited at a wavelength of 320 nm (±12.5 nm) and measured at 430 nm (±17.5 nm) in a GENiosPlus plate reader (Tecan).

[2] = molecular target: T2, RNaseB (UniProt P61823 27-150); test: ELISA, RNaseB coated on plate, anti-T7-HRP detection
T2 construct: also called unrelated control protein RNaseB
T2 sequence (looked up): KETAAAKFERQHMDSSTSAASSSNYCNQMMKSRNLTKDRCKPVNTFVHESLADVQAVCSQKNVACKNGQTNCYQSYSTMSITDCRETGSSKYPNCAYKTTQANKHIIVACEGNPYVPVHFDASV
Experimental: (§3) Afterwards, the wells were washed and blocked as described in Example 8.
(§4) Then, a dilution series of the BBP muteins from Example 11 in SA-buffer was prepared in PBST starting from 1000 nM concentration and incubated for 1 h at room temperature. Subsequently, plates were washed again five times, anti-T7 monoclonal antibody-HRP-conjugate was added and incubated for 1 hour at room temperature followed by washing and addition of fluorogenic HRP-substrate QuantaBlu™ as described in Example 8. After 10 minutes at room temperature fluorescence was excited at a wavelength of 320 nm (±12.5 nm) and measured at 430 nm (±17.5 nm) in a GENiosPlus plate reader.

[3] = molecular target: T1, type I horse ferritin; test: ELISA, ferritin coated on plate, mutein titrated from 1000 nM, anti-T7-HRP detection, apparent KD from curve fit
Experimental: as §3, §4
The resulting binding curves were fitted by non-linear least squares regression as described in Example 8 and are depicted in FIG. 8. The values obtained for the apparent dissociation constants of the complexes between the BBP muteins and the prescribed target ferritin are summarized in Table 5.

[4] = molecular target: T1, type I horse ferritin; test: high-throughput ELISA screening, crude cell extract, ferritin or aldolase coated on plate, anti-T7-HRP detection; Fer-N21 is one of the clones taken on from these 14
Experimental: as §1, §2

[5] = molecular target: T2, RNaseB; test: ELISA: RNaseB coated on the plate as control, BBP mutein titrated 0-1000 nM, detected with anti-T7 antibody-HRP, fluorescence (Example 12)
Experimental: as §3, §4

[6] = molecular target: T1, type I horse ferritin; test: high-throughput ELISA screening, crude cell extract, ferritin or aldolase coated on plate, anti-T7-HRP detection; Fer-P4 is one of the clones taken on from these 14
Experimental: as §1, §2

[7] = molecular target: T3, extracellular domain of human CD47 (amino acids 1 to 119 of the mature protein, Cys15 to Ala) with Strep-tag … (human, UniProt Q08722 19-139); test: ELISA, CD47 coated on plate, mutein titrated from 2000 nM, anti-T7-HRP detection, apparent KD from curve fit
T3 construct: Produced in the periplasm of E. coli JM83, purified by the Strep-tag II; 1-119 counts on the mature CD47; also called recombinant CD47
T3 sequence (Q08722 other isoform, or with tags, fused parts or gaps limits assumed): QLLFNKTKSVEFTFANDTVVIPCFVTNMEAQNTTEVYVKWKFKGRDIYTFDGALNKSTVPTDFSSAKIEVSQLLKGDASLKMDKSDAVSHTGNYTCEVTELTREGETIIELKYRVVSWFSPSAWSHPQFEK
Experimental: For the detection of binding in an ELISA the wells of a black Fluotrac 600 microtiter plate (Greiner; 384 well) were filled each with 20 μl of a solution of the intended recombinant protein target CD47 (produced as described in Example 2) or the unrelated control protein BSA both at a concentration of 50 μg/ml in PBS and were incubated for 1 h at ambient temperature. After washing five times with 100 μl PBST/0.05 per well employing an automated ELISA plate washer, the wells were filled with 100 μl PBST/0.05 3% w/v non-fat dry milk powder (Vitalia), in order to saturate unspecific binding sites and incubated for one hour at room temperature. After blocking, the microtiter plate was washed two times with 100 μl PBST/0.05 as described above.
Then a dilution series of the muteins in SA-buffer from Example 7 was prepared in PBST starting from 2000 nM concentration and incubated for 1 h at room temperature. Subsequently, plates were washed again five times like above and 20 μl of an anti-T7 monoclonal antibody-HRP-conjugate, diluted 1:1000 in PBST, was added to each well and incubated for 1 hour at room temperature. […] After 10 minutes at room temperature fluorescence was excited at a wavelength of 320 nm (±12.5 nm) and measured at 430 nm (±17.5 nm) in a GENiosPlus plate reader. […]

[8] = molecular target: T1, type I horse ferritin; test: high-throughput ELISA screening, crude cell extract, ferritin or aldolase coated on plate, anti-T7-HRP detection; Fer-O20 is one of the clones taken on from these 14
Experimental: as §1, §2

signal-to-control ratio (ferritin against aldolase) [1]: > 5
B1: BBP mutein Fer-D24 (designed binder)
chain: DVYHDGACPEVKPVDNFDWSQYHGKWWEVAKYPSKKGKQGKCGWAEYTPEGKSVKVSRYDVIPCLESFMEGTAYPVGDSKIGKIYHSRTKPGRTKKTVFNVPSTDNKNYIIGYSCVYPEGRKGHRDHVWVLSRSMVLTGEAKTAVENYLIGSPVVDSQKLVYSDFSEAACKVNN
notes: Tested only in the screening ELISA (crude extract, pBBP47: C-terminal T7 tag and Strep-tag II); KD not given

Kd [3]: 29 nM
signal-to-control ratio (ferritin against aldolase) [4]: > 5
B2: BBP mutein Fer-N21 (designed binder)
chain: DVYHDGACPEVKPVDNFDWSQYHGKWWEVAKYPSNRGSKGKCGWAEYTPEGKSVKVSRYDVIPRLEAFMEGTAYPVGDSKIGKIYHSRTSKGKTKKTVFNVLSTDNKNYIIGYSCIYNERYKGHYDHVWVLSRSMVLTGEAKTAVENYLIGSPVVDSQKLVYSDFSEAACKVNN
notes: Tested as expressed from pBBP47: C-terminal T7 tag followed by Strep-tag II
binding result [2]: no binding (tested: dilution series starting from 1000 nM)

Kd [3]: 31 nM
binding result [5]: no binding (tested: 1000 nM)
signal-to-control ratio (ferritin against aldolase) [6]: > 5
B3: BBP mutein Fer-P4 (designed binder)
chain: DVYHDGACPEVKPVDNFDWSQYHGKWWEVAKYPSKGGEKGKCGWAEYTPEGKSVKVSRYDVILSSEPFMEGTAYPVGDSKIGKIYHSRTKKGETKKTVFNVLSTDNKNYIIGYSCGYCECRKGHADHVWVLSRSMVLTGEAKTAVENYLIGSPVVDSQKLVYSDFSEAACKVNN
notes: as for B2

Kd [7]: 33 nM
B4: BBP mutein CD47-G6 (designed binder)
chain: DVYHDGACPEVKPVDNFDWSQYHGKWWEVAKYPNRREKFGKCGWAEYTPEGKSVKVSNYHVIRWGERFIEGTAYPVGDSKIGKIYHSLTLPGYTKENVFNVLSTDNKNYIIGYYCKYLERLKGHADFVWVLSRSMVLTGEAKTAVENYLIGSPVVDSQKLVYSDFSEAACKVNN

Kd [3]: 49 nM
signal-to-control ratio (ferritin against aldolase) [8]: > 5
B5: BBP mutein Fer-O20 (designed binder)
chain: DVYHDGACPEVKPVDNFDWSQYHGKWWEVAKCPSGKGRAGKCGWAEFTPEGKSVKVSRYDVIPAPELFMEGTAYPVGDPKIGKIYHSRTNKGLTKKTVFNVLSTDNKNYIIGYSCKYGEDQKGHKDHVWVLSRSMVLTGEAKTAVENYLIGSPVVDSQKLVYSDFSEAACKVNN
notes: as for B2
binding result [2]: no binding (tested: dilution series starting from 1000 nM)
